Experimental data published in patent US20240277831A1.

Key:
[1] = biological target: RBD-8GS-I53-50A trimeric component (SARS-CoV-2)
[2] = biological target: RBD-16GS-I53-50A trimeric component (SARS-CoV-2)
[3] = biological target: RBD-12GS-I53-50A trimeric component (SARS-CoV-2)
[4] = biological target: Monomeric SARS-CoV-2 RBD (SARS-CoV-2) (UniProt P0DTC2)

CR3022 Fab
Kd [1]: 57 nM
koff [1]: 0.01 s⁻¹
kon [1]: 200000 M⁻¹ s⁻¹
Kd [2]: 56 nM
koff [2]: 0.01 s⁻¹
kon [2]: 200000 M⁻¹ s⁻¹
Kd [3]: 42 nM
koff [3]: 0.009 s⁻¹
kon [3]: 200000 M⁻¹ s⁻¹
Kd [4]: 45 nM
koff [4]: 0.009 s⁻¹
kon [4]: 200000 M⁻¹ s⁻¹
